Our source for the protein stability index values is the supplement of paper PMC10567573.

B1: PLAGL1 (parent)
chain: EKPPSGTKEKKHQCDHCERCFYTR
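Further: lentivirally expressed fusions sorted by FACS into six bins by GFP to DsRed ratio, PSI derived from sequencing read proportions per bin multiplied by bin number.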

In the series the parent is B1. Put plainly: protein stability index of a GFP-peptide fusion (GPS, HEK-293T) (PSI 1-6); higher = more stable. The settings on record: c terminus: a fixed tail appended.
As to EKPPSGTKEEKHQCDHCERCFYTR [K10E], the protein stability index came to 4.42.
Under EKPPSGTKEKKHQCGHCERCFYTR [D15G] stands 4.38.
As for EKPPSGTKEKKHQCIHCERCFYTR [D15I], the protein stability index was found to be 2.55.
The same measure for EKPPSGTKEKKHQCPHCERCFYTR [D15P]: 2.25.
Regarding EKPPSGTKEKKHQCYHCERCFYTR [D15Y], the protein stability index was 2.97.
As for EKPPSGTKEKKHQCEHCERCFYTR [D15E], the protein stability index was 3.18.
For the variant EKPPSGTKEKKHQCTHCERCFYTR [D15T], the protein stability index was found to be 3.37.
For the variant EKPPSGTKEKKHQCKHCERCFYTR [D15K], the protein stability index amounted to 3.33.
EKPPSGTKEKKHQCQHCERCFYTR [D15Q]: the protein stability index came out at 2.7.
On to EKPPSGTKEKKHQCSHCERCFYTR [D15S], for which the protein stability index was determined as 3.29.
Regarding EKPPSGTKEKKHQCAHCERCFYTR [D15A], the protein stability index came to 3.75.
With EKPPSGTKWKKHQCDHCERCFYTR [E9W], the protein stability index worked out at 3.08.
EKPPSGTKRKKHQCDHCERCFYTR [E9R]: the protein stability index came to 2.52.
With EKPPSGTKLKKHQCDHCERCFYTR [E9L], the protein stability index worked out at 3.
For the variant EKPPSGTKIKKHQCDHCERCFYTR [E9I], the protein stability index is 3.27.
With EKPPSGTKHKKHQCDHCERCFYTR [E9H], the protein stability index was 3.37.
Turning to EKPPSGTKDKKHQCDHCERCFYTR [E9D], the protein stability index was 3.96.
Consider EKPPSGTKAKKHQCDHCERCFYTR [E9A], for which the protein stability index was found to be 3.67.
As to EKPPSGTKYKKHQCDHCERCFYTR [E9Y], the protein stability index worked out at 2.6.
As for EKPPSGTKFKKHQCDHCERCFYTR [E9F], the protein stability index came out at 3.26.
Under EKPPSGTKPKKHQCDHCERCFYTR [E9P] stands 3.52; under EKPPSGTKTKKHQCDHCERCFYTR [E9T], 3.51.
Consider EKPPSGTKNKKHQCDHCERCFYTR [E9N], for which the protein stability index was 3.25.
Take EKPYSGTKEKKHQCDHCERCFYTR [P4Y]: the protein stability index was determined as 3.41.
Take EKPLSGTKEKKHQCDHCERCFYTR [P4L]: the protein stability index is 3.28.
Regarding EKPDSGTKEKKHQCDHCERCFYTR [P4D], the protein stability index worked out at 4.31.
With EKPRSGTKEKKHQCDHCERCFYTR [P4R], the protein stability index amounted to 4.31.
For EKPPSGTKEKKHQADHCERCFYTR [C14A], the protein stability index came to 3.97.
With EKPPSGTKEKKHQWDHCERCFYTR [C14W], the protein stability index was 3.4.
Take EKPPSGTKEKKHQYDHCERCFYTR [C14Y]: the protein stability index amounted to 3.56.
As to EKPPSGTKEKKHQTDHCERCFYTR [C14T], the protein stability index is 3.8.
As for EKPPSGTKEKKHQDDHCERCFYTR [C14D], the protein stability index turned out to be 4.14.
Consider EKPPSGTKEKKHQPDHCERCFYTR [C14P], for which the protein stability index came out at 4.03.
As for EKPPSGTKEKKQQCDHCERCFYTR [H12Q], the protein stability index was 3.23.
Consider EKPPSGTKEKKIQCDHCERCFYTR [H12I], for which the protein stability index came out at 2.6.
On to EKPPSGTKEKKFQCDHCERCFYTR [H12F], for which the protein stability index was 2.39.
As for EKPPSGTKEKKRQCDHCERCFYTR [H12R], the protein stability index was 2.17.
On to EKPPSGTKEKKWQCDHCERCFYTR [H12W], for which the protein stability index was 1.89.
EKPPSGTKEKKVQCDHCERCFYTR [H12V]: the protein stability index came to 1.99.
Regarding EKPPSGTKEKKSQCDHCERCFYTR [H12S], the protein stability index was found to be 2.88.
For the variant EKPPSGTKEKKGQCDHCERCFYTR [H12G], the protein stability index was 2.42.
Consider EKPPSGTKEKKTQCDHCERCFYTR [H12T], for which the protein stability index is 3.24.
On to EKPPSGTKEKKLQCDHCERCFYTR [H12L], for which the protein stability index was 2.55.
Under EKPPSGTKEKKNQCDHCERCFYTR [H12N] stands 2.52.
As to EKPPSGTKEKKYQCDHCERCFYTR [H12Y], the protein stability index worked out at 2.15.
Take EKPPSGTKEKKDQCDHCERCFYTR [H12D]: the protein stability index was determined as 3.09.
EKPPSGTKEKKMQCDHCERCFYTR [H12M]: the protein stability index stood at 2.28.
Take GKPPSGTKEKKHQCDHCERCFYTR [E1G]: the protein stability index amounted to 3.6.
As to MKPPSGTKEKKHQCDHCERCFYTR [E1M], the protein stability index worked out at 4.15.
Consider DKPPSGTKEKKHQCDHCERCFYTR [E1D], for which the protein stability index was 3.99.
In the case of KKPPSGTKEKKHQCDHCERCFYTR [E1K], the protein stability index is 2.98.
NKPPSGTKEKKHQCDHCERCFYTR [E1N]: the protein stability index was found to be 3.59.
Take IKPPSGTKEKKHQCDHCERCFYTR [E1I]: the protein stability index is 2.82.
With WKPPSGTKEKKHQCDHCERCFYTR [E1W], the protein stability index was 3.35.
Regarding TKPPSGTKEKKHQCDHCERCFYTR [E1T], the protein stability index stood at 3.36.
Consider EKPPSGTKEKKHQCDHCERCVYTR [F21V], for which the protein stability index was determined as 3.95.
The same measure for EKPPSGTKEKKHQCDHCERCNYTR [F21N]: 4.33.
Consider EKPPSGTKEKKHQCDHCERCQYTR [F21Q], for which the protein stability index came to 5.02.
For EKPPSGTKEKKHQCDHCERCFVTR [Y22V], the protein stability index worked out at 3.69.
In the case of EKPPSGTKEKKHQCDHCERCFKTR [Y22K], the protein stability index is 4.45.
Consider EKPPSGTKEKKHQCDHCERCFITR [Y22I], for which the protein stability index came to 4.17.
For the variant EKPPSGTKEKKHQCDHCERCFDTR [Y22D], the protein stability index is 4.58.
On to EKPPSGTKEKKHQCDHCERCFETR [Y22E], for which the protein stability index stood at 4.67.
With EKPPSGTKEKKHQCDHCERCFRTR [Y22R], the protein stability index is 4.3.
Take EKPPSGTKEKKHQCDHCERCFLTR [Y22L]: the protein stability index is 4.35.
For the variant EKPPSGTKEKKHQCDHCERCFGTR [Y22G], the protein stability index came to 4.03.
Under EKPPSGTKEKKHQCDHCERCFYPR [T23P] stands 3.64; under EKPPSGTKEKKHQCDHCERCFYVR [T23V], 4.11.
In the case of EKPPSGTKEKKHQCDHCERCFYFR [T23F], the protein stability index was determined as 3.97.
As for EKPPSGTKEKKHQCDHCERCFYGR [T23G], the protein stability index came to 4.1.
Under EKPPSGTKEKKHQCDHCERCFYIR [T23I] stands 4.03.
With EKPPSGTKEKKHQCDHCERCFYAR [T23A], the protein stability index is 3.89.
Under EKPPSGTKEKKHQCDHCERCFYWR [T23W] stands 4.12; under EKPPSGCKEKKHQCDHCERCFYTR [T7C], 4.29; under EKPPSGEKEKKHQCDHCERCFYTR [T7E], 3.79.
For the variant EKPPSGLKEKKHQCDHCERCFYTR [T7L], the protein stability index is 3.67.
EKPPSGAKEKKHQCDHCERCFYTR [T7A]: the protein stability index turned out to be 3.44.
Consider EKPPSGMKEKKHQCDHCERCFYTR [T7M], for which the protein stability index is 3.56.
As to EKPPSGHKEKKHQCDHCERCFYTR [T7H], the protein stability index is 3.85.
As for EKPPSGTKEKKHQCDHCGRCFYTR [E18G], the protein stability index stood at 3.22.
In the case of EKPPSGTKEKKHQCDHCYRCFYTR [E18Y], the protein stability index stood at 2.92.
Turning to EKPPSGTKEKKHQCDHCHRCFYTR [E18H], the protein stability index is 3.33.
For EKPPSGTKEKKHQCDHCCRCFYTR [E18C], the protein stability index worked out at 2.69.
With EKPPSGTKEKKHQCDHCNRCFYTR [E18N], the protein stability index was 2.94.
On to EKPPSGTKEKKHQCDHCMRCFYTR [E18M], for which the protein stability index worked out at 2.6.
EKPPSGTKEKKHQCDHCWRCFYTR [E18W]: the protein stability index was 3.41.
In the case of EKPPSGTKEKKHQCDHCIRCFYTR [E18I], the protein stability index is 2.63.
EKPPSGTKEKKHQCDHCARCFYTR [E18A]: the protein stability index was found to be 3.18.
Turning to EKPPSGTKEKKHQCDHCDRCFYTR [E18D], the protein stability index turned out to be 3.12.
The same measure for EKGPSGTKEKKHQCDHCERCFYTR [P3G]: 3.63; for EKEPSGTKEKKHQCDHCERCFYTR [P3E]: 3.83; for EKLPSGTKEKKHQCDHCERCFYTR [P3L]: 3.32.
Regarding EKYPSGTKEKKHQCDHCERCFYTR [P3Y], the protein stability index came out at 3.5.
Take EKIPSGTKEKKHQCDHCERCFYTR [P3I]: the protein stability index is 3.58.
